Data set [1] can be described thus: pH solubility screen in Citric Acid / Dibasic Sodium Phosphate buffers. Format: physicochemical. The settings on record: for pH Range where Protein is >80% detected as Soluble and A650 <1 OD: Low: lower pH of range; for pH Range where Protein is >80% detected as Soluble and A650 <1 OD: High: upper pH of range. How it is done:
pH Solubility. […] Protein was either lyophilized and then resuspended in buffer cocktail mixtures, or concentrated and then spiked into buffer cocktail mixtures at a final protein concentration of 5 to 30 mg/ml. As a control, protein was also dissolved in a solution of 8 M urea. Protein solutions were shaken for 10 min at room temperature. Turbidity of proteins was determined by measuring the absorbance of protein solutions at 650 nm. The protein solution was then centrifuged for 10 min at 1100×g to pellet undissolved or precipitated protein. The soluble protein fraction (supernatant) was sampled and protein concentration was measured by one or more of the following methods: Coomassie Plus Protein Assay (Pierce), Chip electrophoresis, gel electrophoresis, and/or absorbance at 280 nm. The pH range over which select proteins remained greater than 80% soluble as determined by Bradford and the A650 value are listed in Table E31C.

The nature of data set [2]: Thermostability, ProteoStat Thermal Shift Stability Kit, temperature of aggregation. Format: physicochemical. How it is done:
Thermostability. The thermostability of proteins in a buffer cocktail of Citric Acid and Dibasic Sodium Phosphate over a pH range of 2.8 to 7.1 (preparation described above in Table E31B) was determined using the ProteoStat® Thermal Shift Stability Kit (Enzo Life Sciences) according to the manufacturer's standard protocol. Briefly, protein solutions (˜10 mg/ml) containing 1× ProteoStat TS Detection Reagent were heated from 25° C. to 95° C. at a rate of 0.5° C. per 30 sec using a real-time PCR (rtPCR) thermocycler (BioRad) equipped with a plate reader (SynergyMx, Biotek) while monitoring the fluorescence with a Texas Red filter.

Data set [3] can be described thus: Intact half-life during simulated gastric fluid (SGF) digestion. The note with it: for SGF Half-life (t½): SGF pH 1.5, pepsin:polypeptide 1:20 w/w, 37° C., produced in E. coli unless otherwise noted; for Half-life: purified proteins, chip electrophoresis, SGF.
The nature of data set [4]: SGF digest of the 168 nutritive polypeptide library, intact protein by LC-MS/MS spectral counts. Format: in vitro ADME. The settings on record: proteins detected in the 168 nutritive polypeptide library. How it is done: Nutritive polypeptide intact half-life determination in a complex mixture. The in vitro intact half-life of multiple polypeptides in a complex mixture was determined using the simulated gastric in vitro digestion described above. Briefly, the 168 nutritive polypeptide library was generated as described herein by cloning, transforming, and expressing a gene library encoding 168 proteins as a single mixture. The recombinantly expressed proteins were purified from host cell proteins by IMAC purification as described herein.
The 168 Protein Library was treated with SGF as described above and the t=0 and t=10 min samples were analyzed for intact protein by LC-MS/MS. To begin, 10 μg of sample was loaded onto a 10% SDS-PAGE gel (Invitrogen) and run approximately 5 cm into the gel. The gel was excised into ten fractions from 100 kD to the dye front and the gel slices were processed by washing with 25 mM ammonium bicarbonate, followed by acetonitrile. Gel fractions were then reduced with 10 mM dithiothreitol at 60° C., followed by alkylation with 50 mM iodoacetamide at room temperature. Finally, the samples were digested with trypsin (Promega) at 37° C. for 4 h and the digestions were quenched with the addition of formic acid. The samples were then analyzed by nano LC/MS/MS using an EasynLC 1000 HPLC system interfaced to a ThermoFisher Q Exactive. Peptides were loaded on a trapping column and eluted over a 75 μm analytical column at 350 nL/min; both columns were packed with PepMap C18 3 μm resin (ThemoFisher). A 1 hour gradient was employed. The mass spectrometer was operated in data-dependent mode, with MS and MS/MS performed in the Orbitrap at 70,000 FWHM resolution and 17,500 FWHM resolution, respectively. The fifteen most abundant ions were selected for MS/MS. Data were searched against an appropriate database using Mascot to identify peptides. Mascot DAT files were parsed into the Scaffold software for validation, filtering and to create a nonredundant list per sample. Data were filtered at 1% protein and peptide false discovery rate (FDR) and requiring at least two unique peptides per protein. A full list of detected proteins and their spectral counts (SpC) was generated and reported as a function of each collected gel fraction. SpC are a count of the number of spectra identified for a given protein and are used as a measure of relative protein abundance (Liu, H. et al., Analytical Chemistry 2004, 76:4193-4201). To calculate the percentage of intact protein remaining at the 10 min time point of the SGF digest the number of SpC representative of intact peptide in the t=10 min sample were divided by the number of SpC representative of intact peptide in the t=0 min sample. The number of SpC representative of intact peptide was defined as the sum of the SpC in the fraction with the highest number of SpC assigned to that protein in the t=0 min sample and the two flanking fractions.

Data set [5] can be described thus: Solubility of proteins (lyophilized/reconstituted or ultrafiltered). The settings on record: produced in E. coli unless otherwise noted.
The mark [6] stands for this setting: heated 25° C. to 95° C., NS = protein not soluble.

Broadly, the Solubility is the dissolved amount per volume that the medium holds.

B1: SEQID-00605: nutritive polypeptide naturally produced in Mushroom, recombinantly expressed in E. coli (protein, listed as Agaricus bisporus)
chain: MLEFTLNDGNRIPAIAFGTGTALYNQDASAFVRLAIETGITHLDGAQMYENEETLGKGIKSSGKPRSELFITTKLHILKPGQTVRETLVESLGKIGVDYVDLFLIHDPTANRKEATLSEIWSQLEALKNEGLTKSIGVSNFKVEDLNEILPGAKIIPAVNQIEFHPYVLKAASPIIELCKAKGIIVASYGGQTPIVRATDGPLKDLLPKIRERLEQTRGSPVTEGQVLTKWLLQKNVIAISTSSKESRIKEFLSTVDVPDLTKQEIESIDNAGSTIHKRIYMKHIFNE
modifications: var. bisporus; strain H97 / ATCC MYA-4626 / FGSC 10389
notes: nutritive polypeptide naturally produced in Mushroom, recombinantly expressed in E. coli
Regarding B1, in data set [1], the “pH Range where Protein is >80% detected as Soluble and A650 <1 OD: Low” value (“pH Range where Protein is >80% detected … Low” below) is 5.6; the “pH Range where Protein is >80% detected as Soluble and A650 <1 OD: High” value (“pH Range where Protein is >80% detected … High” for short) was 7.1. Further, in data set [2] (NS = protein not soluble), the “Tagg pH 4.6” value is listed as 40.5, the “Tagg pH 5.0” value stood at 33.5, the “Tagg pH 5.6” value is 37 and the “Tagg pH 6.0” value stood at 44.5. The “Tagg pH 6.5” value in data set [2] (NS = protein not soluble) was 38.5. Further, the “Tagg (pH 7.1)” value in data set [2] (setting [6]) came to 39. In data set [3], the “SGF Half-life (t½)” value was 12 s and the “Half-life” value was 6 s. For the same molecule, the “% Remaining at 10 min” value in data set [4] is 0%.

B2: SEQID-00502: protein of the 168 nutritive polypeptide library (protein)
chain: MASQSNTKSVHDFTVKDARGNNVNLADYKGKVLLIVNVASQCGLTNSNYTELNQLYEKYKGKGLEILAFPCNQFGAQEPGTNEEIVEFACTRFKAEFPIFDKVDVNGDNAAPLYKFLKSSKGGLFGDSIKWNFSKFLVDKDGNVVDRYAPTTSPLSIEKDIKKLLDA
modifications: Glycine max
notes: protein of the 168 nutritive polypeptide library
For the molecule B2, in data set [1], the “pH Range where Protein is >80% detected … Low” value amounted to 7.1; the “pH Range where Protein is >80% detected as Soluble and A650 <1 OD: Other” value is listed as 2.8. In addition, in data set [2] (NS = protein not soluble), the “Tagg pH 2.8” value is 95, the “Tagg pH 3.7” value amounted to 95, the “Tagg pH 4.3” value is reported as 95 and the “Tagg pH 4.6” value turned out to be 95. For the same molecule, in data set [2] (NS = protein not soluble), the “Tagg pH 5.0” value came to 77, the “Tagg pH 5.6” value stood at 77, the “Tagg pH 6.0” value is 76.5 and the “Tagg pH 6.5” value worked out at 78.5. Moreover, the “Tagg (pH 7.1)” value in data set [2] (setting [6]) is 95. In data set [3], the “SGF Half-life (t½)” value is 36 s and the “Half-life” value is 36 s. In data set [4], the “% Remaining at 10 min” value came to 9.7%.

B3: SEQID-00606: protein of the 168 nutritive polypeptide library (protein)
chain: MASEGDHHHHHHHHQDHDHHHHDHDHHHHHDGEGETNSWVGKDGKVYHSHDGLAPHSHEPIYSPGYFTRRAPPLLNRNFNERAFTVGIGGPVGTGKTALMLALCELLRENYSLAAVTNDIFTKEDGEFLVKHKALPEERIRAVETGGCPHAAIREDISINLGPLEELSNLFKADILLCESGGDNLAANFSRELADYIIYIIDVSGGDKIPRKGGPGITQADLLVINKTDLAPAIGADLAVMQRDALRMRDGGPFVFAQVKHKIGVEEIGNLVLQAWEAATGNKRH
modifications: Glycine max
notes: as for B2
For the molecule B3, in data set [2] (heated from 25° C. to 95° C.), the “Tagg (pH 7.1)” value stood at 95. Moreover, in data set [3], the “SGF Half-life (t½)” value is 18 s and the “Half-life” value is 18 s. Also, the “% Remaining at 10 min” value in data set [4] came to 0%.

B4: SEQID-00601: protein of the 168 nutritive polypeptide library (protein, listed as Agaricus bisporus)
chain: MTRSWEPGTQYNLGDVVEYNGDEYKIIQAHSSQSDWAPDRTPALWGKLPHRHHQQGQYQQQQECQPQQPQKTCYDYGKQEQAPQHSDSKEKKNWFGNITESQKQALEVGGGVALGAGLLGGAFAAWKHHQHKEEAHDSFEAWANAARSRAEEFRAKGPQGPATWVYNEGKHIPEQAILVGTEHNWNLYICRAYCDGGVQIGKASDVFKKGAVIGYKEDEHHLDKYEILLGDMRGLKWVQTGNSLDLASLGATPVEGGYENDHTRLYIARAFHKGAKHPGKVSERLDGAYIPYDGKEKCVKEYEVLCYL
modifications: var. bisporus; strain H97 / ATCC MYA-4626 / FGSC 10389
notes: as for B2
As for B4, in data set [2] (NS = protein not soluble), the “Tagg pH 2.8” value was 95, the “Tagg pH 3.7” value amounted to 95, the “Tagg pH 4.3” value is recorded as 95 and the “Tagg pH 6.5” value is given as 45.5. Moreover, the “Tagg (pH 7.1)” value in data set [2] (setting [6]) was 48.5. Also, in data set [3], the “SGF Half-life (t½)” value is 12 s and the “Half-life” value is 12 s. Further, the “% Remaining at 10 min” value in data set [4] came out at 1.1%.

B5: SEQID-00485: nutritive polypeptide naturally produced in Chickpea, recombinantly expressed in E. coli (protein, listed as Cicer arietinum)
chain: MTKTGYINAAFRSSRNNEAYLFINDKYVLLDYAPGTSNDKVLYGPSFVRDGYKSLAKTIFGTYGIDCSFDTEYNEAFIFYENFCARIDYAPHSDKDKIISGPKKIADMFPFFKGTVFENGIDAAFRSTKGKEVYLFKGDKYARIDYLTNRLVQNIKSISDGFPCLRGTIFEAGMDSAFASHKTNEAYLFKGEYYARINFTPGSTNDIMGGVKKTLDYWPSLRGIIPLE
As to B5, the “Solubility” value in data set [5] worked out at 99 mg/mL. For the same molecule, in data set [1], the “pH Range where Protein is >80% detected … Low” value is 4.6; the “pH Range where Protein is >80% detected as Soluble and A650 <1 OD: Other” value was found to be 2.8; the “pH Range where Protein is >80% detected … High” value was 7.1. Further, in data set [2] (NS = protein not soluble), the “Tagg pH 5.0” value amounted to 31.5, the “Tagg pH 5.6” value was determined as 34.5, the “Tagg pH 6.0” value was 36 and the “Tagg pH 6.5” value came to 36.5. In addition, the “Tagg (pH 7.1)” value in data set [2] (setting [6]) is given as 36. Also, in data set [3], the “SGF Half-life (t½)” value was 30 s and the “Half-life” value is 30 s. The “% Remaining at 10 min” value in data set [4] amounted to 0%.

B6: SEQID-00511: protein of the 168 nutritive polypeptide library (protein)
chain: MVLFGFGKKKSLPKPEEALPGRDRVMSVPDRHYINGNPLKPPFPEGMEQAVFGLGCFWGAERKFWQQQGVFSTAVGYAGGYTKNPTYEEVCSGMTGHTEVVLVVFDPKVISYTDLLKLFWESHNPTQGMRQGNDTGTQYRSAIYTYSDEQQRLALASRDRYQQALSAASYGEITTEIAPAQEFYYAEAYHQQYLGKNPNGYCGLGGTGVGCPAMTETSV
modifications: Arthrospira platensis C1
notes: as for B2
With B6, in data set [1], the “pH Range where Protein is >80% detected … Low” value is on record as 5.6; the “pH Range where Protein is >80% detected … High” value is reported as 7.1. Besides, in data set [2] (NS = protein not soluble), the “Tagg pH 6.0” value is given as 39.5 and the “Tagg pH 6.5” value came out at 45.5. In addition, the “Tagg (pH 7.1)” value in data set [2] (setting [6]) was 42. Besides, in data set [3], the “SGF Half-life (t½)” value was 18 s and the “Half-life” value is 18 s. Also, in data set [4], the “% Remaining at 10 min” value is 4.3%.

These data come from patent US20260069656A1, “Nutritive Polypeptides and Formulations Thereof, and Methods of Production and Use Thereof” (Axcella Health Inc., priority 2013, published 2026).
